Reference: the supplement of paper PMC7877785
± gives the uncertainty stated by the source.

Test: self-splicing fitness, log relative to wild type (ln ratio); higher = more splicing; Tetrahymena group I intron in knt gene, E. coli kanamycin selection, DiMSum; sequences stand for … in CUCUCU…GGAGGGAAAAGUUAUCAGGCAUGCACCUGGUAGCUAGUCUUUAAACCAAUAGAUUGCAUCGGUUUAAAAGGCAAGACCGUCAAAUUGCGGGAAAGGGGUCAACAGCCGUUCAGUACCAAGUCUCAGGGGAAACUUUGAGAUGGCCUUGCAAAGGGUAUGGUAAUAAGCUGACGGACAUGGUCCUAACCACGCAGCCAAGUCCUAAGUCAACAGAUCUUCUGUUGAUAUGGAUGCAGUUCACAGACUAAAUGUCGGUCGGGGAAGAUGUAUUCUUCUCAUAAGAUAUAGUCGGACCUCUCCUUAAUGGGAGCUAGCGGAUGAAGUGAUGCAACACUGGAGCCGCUGGGAACUAAUUUGUAUGCGAAAGUAUAUUGAUUAGUUUUGGAGUACUCGUGGUCG
Outline: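 A randomised library covering all eight P1ex-region intron nucleotides was built with the intron in the knt kanamycin-resistance gene on pET-22b(+) and held in E. coli BL21(DE3). Cells were grown overnight at 37°C or 30°C on LB agar, with or without 25 μg/mL kanamycin, plus 100 μg/mL carbenicillin, 50 μM IPTG and 0.2% rhamnose, and pooled colonies were amplicon-sequenced on an Illumina HiSeq 2500. DiMSum fitness is the error-weighted combination of wild-type-normalised replicate fold changes, kanamycin versus none.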

| Sequence | self-splicing fitness (ln) (30 °C) | self-splicing fitness (ln) (37 °C) |
| --- | --- | --- |
| CAAAAGCAAUAUUACGGUUC | -3.56 ± 0.22 | -1.83 ± 0.18 |
| CCGUAGCAAUAUUACGGAUU |  | -3.01 ± 0.29 |
| CGAUAGCAAUAUUACGGCCU | -1.67 ± 0.19 | -0.545 ± 0.2 |
| GUCUAGCAAUAUUACGGAUG | -1.93 ± 0.2 | 0.0916 ± 0.19 |
| CCCUAGCAAUAUUACGCAUC | -3.26 ± 0.25 | -2 ± 0.2 |
| GUUCAGCAAUAUUACGCUUU | -0.726 ± 0.088 | 0.0124 ± 0.11 |
| CGUGAGCAAUAUUACGUAAC | -3.13 ± 0.39 | -2.78 ± 0.43 |
| GGUAAGCAAUAUUACGCCCU | -1.86 ± 0.28 | -1.35 ± 0.28 |
| UCGGAGCAAUAUUACGAACA | -2.3 ± 0.21 | -1.25 ± 0.21 |
| CGUAAGCAAUAUUACGGGUG | -1.64 ± 0.057 | -0.924 ± 0.057 |
| AAAGAGCAAUAUUACGUUGC | -3.79 ± 0.39 | -1.93 ± 0.23 |
| AUCUAGCAAUAUUACGACGG | -2.58 ± 0.33 | -2.23 ± 0.42 |
| GCGAAGCAAUAUUACGACGG | -1.27 ± 0.21 | -0.313 ± 0.33 |
| CCCUAGCAAUAUUACGUCUA | -2.5 ± 0.19 | -2.12 ± 0.2 |
| GUAGAGCAAUAUUACGGCCC | -1.36 ± 0.29 | -0.935 ± 0.32 |
| GCUAAGCAAUAUUACGGACA | -1.35 ± 0.12 | -1.17 ± 0.12 |
| AGUUAGCAAUAUUACGUAAC | -4.54 ± 0.46 | -2.21 ± 0.24 |
| CGCGAGCAAUAUUACGCACU | -2.58 ± 0.13 | -1.51 ± 0.13 |
| CUUGAGCAAUAUUACGUUUC | -3.44 ± 0.27 | -2.68 ± 0.36 |
| UUCGAGCAAUAUUACGGCCG |  | -1.41 ± 0.35 |

| Sequence | self-splicing fitness (ln) (30 °C) | self-splicing fitness (ln) (37 °C) |
| --- | --- | --- |
| ACGCAGCAAUAUUACGCAGU | -3.29 ± 0.16 | -2.78 ± 0.21 |
| CAUAAGCAAUAUUACGCUCA | -1.25 ± 0.088 | -1.18 ± 0.11 |
| UAAUAGCAAUAUUACGUGUA | -2.19 ± 0.12 | -0.918 ± 0.1 |
| UUUAAGCAAUAUUACGCAAU | -2.5 ± 0.24 | -1.55 ± 0.23 |
| UGUCAGCAAUAUUACGGGGC | -2.84 ± 0.16 | -3.02 ± 0.26 |
| UGAAAGCAAUAUUACGUUGG | -2.36 ± 0.091 | -1.66 ± 0.11 |
| UUAUAGCAAUAUUACGUAAA | -1.34 ± 0.19 | -1.58 ± 0.22 |
| CGCGAGCAAUAUUACGUAUA | -3.38 ± 0.27 | -1.24 ± 0.24 |
| AUAGAGCAAUAUUACGGAGU | -0.705 ± 0.093 | -1.03 ± 0.14 |
| ACGUAGCAAUAUUACGCAUA | -1.82 ± 0.13 | -1.2 ± 0.12 |
| ACACAGCAAUAUUACGCAUG | -1.04 ± 0.075 | -0.692 ± 0.081 |
| GCUGAGCAAUAUUACGCGUC | -1.94 ± 0.17 | -0.941 ± 0.21 |
| AACUAGCAAUAUUACGGGAG | -1.35 ± 0.11 | -1.21 ± 0.13 |
| UUUGAGCAAUAUUACGGACU | -4.55 ± 0.34 | -2.99 ± 0.23 |
| GCUUAGCAAUAUUACGUGCC | -3.64 ± 0.35 | -0.354 ± 0.14 |
| UUGAAGCAAUAUUACGAGUA | -1.83 ± 0.077 | -0.59 ± 0.085 |
| CAAGAGCAAUAUUACGGUUC | -3.57 ± 0.24 | -2.34 ± 0.25 |
| ACGUAGCAAUAUUACGGAUG | -4.2 ± 0.24 | -2.42 ± 0.21 |
| GGGGAGCAAUAUUACGUAGA | -2.43 ± 0.31 | -1.7 ± 0.4 |
| AAUGAGCAAUAUUACGAUUU | -1.24 ± 0.095 | -0.73 ± 0.1 |

| Sequence | self-splicing fitness (ln) (30 °C) | self-splicing fitness (ln) (37 °C) |
| --- | --- | --- |
| CCUAAGCAAUAUUACGGCGA | -2.84 ± 0.31 | -1.95 ± 0.27 |
| ACUAAGCAAUAUUACGUAAA | -2.48 ± 0.13 | -1.6 ± 0.14 |
| AAAUAGCAAUAUUACGCGUG | -1.11 ± 0.078 | -0.804 ± 0.11 |
| UCUGAGCAAUAUUACGACCG | -2.92 ± 0.4 | -2.39 ± 0.46 |
| GUUAAGCAAUAUUACGUAAG | -0.147 ± 0.098 | -0.0396 ± 0.13 |
| AGCAAGCAAUAUUACGCGAG | -3.61 ± 0.16 | -2.87 ± 0.19 |
| ACUUAGCAAUAUUACGGCUG | -1.32 ± 0.062 | -0.174 ± 0.082 |
| UACAAGCAAUAUUACGGAGA | -2.4 ± 0.17 | -3.27 ± 0.23 |
| UCCGAGCAAUAUUACGUGUU | -2.75 ± 0.16 | -2.36 ± 0.15 |
| GUGUAGCAAUAUUACGUUGA | -1.73 ± 0.14 | -3.07 ± 0.36 |
| UCGCAGCAAUAUUACGAUAA | -1.91 ± 0.14 | -0.243 ± 0.14 |
| GCCAAGCAAUAUUACGGAUG | -1.24 ± 0.057 | -0.693 ± 0.07 |
| AGUCAGCAAUAUUACGUGAG | -0.691 ± 0.054 | -0.0397 ± 0.086 |
| UGGGAGCAAUAUUACGCCGC | -2.27 ± 0.47 |  |
| UCGCAGCAAUAUUACGAGCG | -1.97 ± 0.12 | -0.806 ± 0.13 |
| GAACAGCAAUAUUACGAGGC | -3.07 ± 0.18 | -2.03 ± 0.14 |
| GAAUAGCAAUAUUACGUAUC | -1.7 ± 0.13 | -1.75 ± 0.2 |
| ACGCAGCAAUAUUACGGGUC | -4.12 ± 0.21 | -2.92 ± 0.17 |
| AACUAGCAAUAUUACGGUUC | -4.49 ± 0.24 | -2.94 ± 0.21 |
| UACGAGCAAUAUUACGAAAG | -2.75 ± 0.42 | -1.29 ± 0.45 |
